Experimental data published in patent US20240376216A1 (NINGBO T MAXIMUM BIOPHARMACEUTICALS, published 2024).

Target: T1, IL13Rα2 on U251-LG target cells (UniProt Q14627 27-380, limits assumed)
T1 sequence (looked up): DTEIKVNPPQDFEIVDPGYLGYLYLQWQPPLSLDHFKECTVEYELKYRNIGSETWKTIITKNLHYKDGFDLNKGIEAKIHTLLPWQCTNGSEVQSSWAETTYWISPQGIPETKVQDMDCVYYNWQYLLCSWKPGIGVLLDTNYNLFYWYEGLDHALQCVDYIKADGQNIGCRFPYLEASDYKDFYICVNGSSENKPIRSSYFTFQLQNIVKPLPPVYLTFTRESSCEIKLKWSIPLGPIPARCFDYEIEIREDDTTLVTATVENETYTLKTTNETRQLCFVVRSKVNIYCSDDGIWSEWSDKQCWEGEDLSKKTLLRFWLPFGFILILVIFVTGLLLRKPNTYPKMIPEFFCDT
Experiment: cell-based or functional assay

B1: anti-IL13Rα2 CAR VLVH (murine) (other)
chain: DIVMTQSHKFISTSVGDRVSITCKASQDVGTAVAWYQQIPGQSPKLLIYSASYRSTGIPDRFTGSGSGTDFSFIISSVQAEDLALYYCQHHYSAPWTFGGGTTLDIKGGGGSGGGGSGGGGSEVQLVESGGDLVRPGGSLQLSCAASGFTFSRNGMSWVRQTPDRRLEWVATVSSGGSYIYYADSVKGRFTISRDNARNTLYLQMSSLKSEDTAMYYCARQGTTALATRFFDVWGAGTTVTVSSFVPVFLPAKPTTTPAPRPPTPAPTIASQPLSLRPEACRPAAGGAVHTRGLDFACDIYIWAPLAGTCGVLLLSLVITLYCNHRNKRGRKKLLYIFKQPFMRPVQTTQEEDGCSCRFPEEEEGGCELRVKFSRSADAPAYQQGQNQLYNELNLGRREEYDVLDKRRGRDPEMGGKPRRKNPQEGLYNELQKDKMAEAYSEIGMKGERRRGKGHDGLYQGLSTATKDTYDALHMQALPPR
- killing efficiency (lysis of target cells by luciferase activity, 24 h co-culture, effector-to-target ratio 2:1): > 90%
